The results in this text go back to paper PMC2856262.

Experiment [1] has as its target SPA-KLPOS (SPA-KLPO with the cysteine of the kink replaced by serine).
For experiment [2], the target named is SPA-KLP (SP-A with Glu63 to Lys, Cys64 to Leu and Glu66 to Pro).
The target of experiment [3] is SPA-KLPOdel (SPA-KLPO with the kink sequence PCPP removed).
Experiment [4] deals with SPA-KLPO (SPA-KLP with Lys67 replaced by hydroxyproline).
Experiment [5] addresses Recombinant rat mannose-binding lectin (MBL), wild-type (rat) (UniProt P19999). In words: SPR. Background: In SPR one partner is held on a chip, and binding of the other changes the refractive index at the surface.
Experiment [6] addresses SPA-KLPOS (SPA-KLPO with the cysteine of the kink replaced by serine). The experiment is described as follows: SPR.
The target of experiment [7] is SPA-KLP (SP-A with Glu63 to Lys, Cys64 to Leu and Glu66 to Pro). In words: SPR.
Experiment [8] has as its target Rat MBL, deletion mutant (one Gly-Xaa-Yaa triplet removed from the collagenous domain) (rat) (UniProt P19999). In words: SPR.
The target in experiment [9] is Rat MBL, double-deletion mutant (two Gly-Xaa-Yaa triplets removed from the collagenous domain) (rat) (UniProt P19999). The experiment is described as follows: SPR.
Experiment [10] has as its target SPA-KL (SP-A with Glu63 to Lys and Cys64 to Leu). In words: SPR.
In experiment [11] the target is Recombinant rat mannose-binding lectin (MBL), wild-type (rat) (UniProt P19999). In words: SPR. The source holds these as a separate data set.
For experiment [12], the target named is SPA-KLPOdel (SPA-KLPO with the kink sequence PCPP removed). The experiment is described as follows: SPR.
Experiment [13] concerns the target Rat MBL, insertion mutant (a single Gly-Pro-Hyp inserted near the kink-like region) (rat) (UniProt P19999). The experiment is described as follows: SPR.
Experiment [14] addresses Rat MBL, kink mutant (kink-like region removed by insertion of a proline residue) (rat) (UniProt P19999). The experiment is described as follows: SPR.
Experiment [15] addresses SPA-KLPO (SPA-KLP with Lys67 replaced by hydroxyproline). The experiment is described as follows: SPR.

Where two headings read alike, the source gives them in different places.

As for “MASP-2K (rat MBL-associated serine protease-2, catalytically active, Arg424 to Lys) (enzyme)”, the Half-time for MASP-2K activation, fucose-Sepharose as target in experiment [1] was determined as 166 min; in experiment [2] it was 270 min; in [3], 316 min; in experiment [4] it was 256 min.
Turning to “MASP-2A (rat MBL-associated serine protease-2, catalytically inactive, Ser613 to Ala) (enzyme)”, the KD, complex 1 in [5] was 3.8 nM; in experiment [6], 99 nM; in [12], 29 nM; in experiment [13], 4.9 nM; in experiment [15], 97 nM. Besides, the KD, complex 2 stood at 166 nM in experiment [5]; 203 nM in [6]; 104 nM in [7]; 175 nM in [8]; 195 nM in experiment [9]; 2120 nM in [10]. Besides, the KD, complex 2 amounted to 165 nM in experiment [11]; 114 nM in experiment [12]; 199 nM in experiment [13]; 136 nM in experiment [14]; 232 nM in [15]. For the same substance, the koff, complex 1 in [6] is 0.0046 s⁻¹; in experiment [8], 0.0038 s⁻¹; in experiment [12] it was 0.0017 s⁻¹; in experiment [14], 0.0062 s⁻¹; in experiment [15] it was 0.0025 s⁻¹. Also, the koff, complex 2 in [6] turned out to be 0.037 s⁻¹; in [7], 0.0176 s⁻¹; in [8], 0.0054 s⁻¹; in experiment [11] it was 0.00475 s⁻¹; in [12], 0.021 s⁻¹; in experiment [15] it was 0.022 s⁻¹. For the same substance, the kon, complex 1 in [6] is 45000 M⁻¹ s⁻¹; in [7], 54000 M⁻¹ s⁻¹; in experiment [12], 53000 M⁻¹ s⁻¹; in [15], 26000 M⁻¹ s⁻¹. In addition, the kon, complex 2 came to 210000 M⁻¹ s⁻¹ in experiment [6], 360000 M⁻¹ s⁻¹ in experiment [7] and 96000 M⁻¹ s⁻¹ in [15].
